Experimental data reported in patent publication US20140046032A1 (Sanofi, published 2014).
Residue numbers refer to the chain shown, from its start. Numbers in names are those of the source. One block for each molecule: values may come before it.

Tests used:
[1] = target: lectin Maackia amurensis (MAA) (Maackia amurensis); experiment: enzyme-linked lectin assay (ELLA) with Maackia amurensis lectin (MAA, α-2,3 sialic acid); signal against µg of mAb, linear axis
[2] = target: T1, recombinant murine FcγRIV (murine, UniProt A0A0B4J1G0 21-203); experiment: SPR, Biacore 3000
T1 construct: Bought
T1 sequence: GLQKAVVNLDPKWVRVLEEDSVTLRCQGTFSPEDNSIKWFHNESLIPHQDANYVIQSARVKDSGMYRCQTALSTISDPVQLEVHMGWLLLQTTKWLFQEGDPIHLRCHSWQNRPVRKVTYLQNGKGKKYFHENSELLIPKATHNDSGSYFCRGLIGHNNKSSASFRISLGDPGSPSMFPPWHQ

recombinant murine FcγRI = target: T2, recombinant murine FcγRI (murine, UniProt P26151 25-297); experiment: SPR, Biacore 3000
T2 construct: Bought
T2 sequence (looked up): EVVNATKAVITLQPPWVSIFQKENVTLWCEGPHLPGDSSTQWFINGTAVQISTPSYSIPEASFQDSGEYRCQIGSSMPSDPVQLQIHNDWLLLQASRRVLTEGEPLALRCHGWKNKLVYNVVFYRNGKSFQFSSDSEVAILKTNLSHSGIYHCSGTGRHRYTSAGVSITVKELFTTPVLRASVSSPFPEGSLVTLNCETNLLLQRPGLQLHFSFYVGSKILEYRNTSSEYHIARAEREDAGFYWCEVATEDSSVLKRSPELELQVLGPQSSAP

[3] = target: T3, recombinant murine FcγRIII (murine, UniProt P08508 31-215); experiment: SPR, Biacore 3000
T3 construct: Bought
T3 sequence (looked up): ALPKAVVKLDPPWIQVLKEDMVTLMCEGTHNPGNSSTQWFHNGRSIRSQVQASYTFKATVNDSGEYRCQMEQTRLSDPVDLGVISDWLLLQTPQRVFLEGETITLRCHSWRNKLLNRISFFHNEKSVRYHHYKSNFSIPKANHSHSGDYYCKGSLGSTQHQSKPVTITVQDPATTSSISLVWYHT

[4] = target: T4, recombinant murine FcγRIIb (murine, UniProt P08101 30-207, limits assumed); experiment: SPR, Biacore 3000
T4 construct: Bought
T4 sequence (looked up): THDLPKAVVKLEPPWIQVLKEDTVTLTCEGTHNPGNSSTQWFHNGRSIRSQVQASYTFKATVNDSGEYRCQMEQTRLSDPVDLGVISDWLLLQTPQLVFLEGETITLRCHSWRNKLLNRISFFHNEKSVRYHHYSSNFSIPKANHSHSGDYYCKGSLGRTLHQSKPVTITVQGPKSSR

Sequence of lectin Maackia amurensis (MAA) (Maackia amurensis) (P0DKL3 30-278): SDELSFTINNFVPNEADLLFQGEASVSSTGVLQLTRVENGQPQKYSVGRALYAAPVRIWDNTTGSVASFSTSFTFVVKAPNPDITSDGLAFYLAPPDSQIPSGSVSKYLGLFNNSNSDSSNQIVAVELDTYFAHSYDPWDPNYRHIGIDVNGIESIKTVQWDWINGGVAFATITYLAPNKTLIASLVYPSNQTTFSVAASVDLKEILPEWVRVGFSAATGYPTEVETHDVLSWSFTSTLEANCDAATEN

Molecule: fetuin
EC50 (read off the curve) [1]: 0.2 µg

B1: α-2,6 sialylated antiAbeta-13C3_D257A mAb (co-expressed with SIAT1 and B4GT1) (antibody, mouse IgG1, kappa)
heavy: QVQLQQSGPELVRPGVSVKISCKGSGYTFTDYAMHWVKQSHAKSLEWIGVISTKYGKTNYNQKFKGKATMTVDKSSSTAYMELARLTSEDSAIYYCARGDDGYSWGQGTSVTVSSAKTTPPSVYPLAPGSAAQTNSMVTLGCLVKGYFPEPVTVTWNSGSLSSGVHTFPAVLQSDLYTLSSSVTVPSSTWPSETVTCNVAHPASSTKVDKKIVPRDCGCKPCICTVPEVSSVFIFPPKPKDVLTITLTPKVTCVVVAISKDDPEVQFSWFVDDVEVHTAQTQPREEQFNSTFRSVSELPIMHQDWLNGKEFKCRVNSAAFPAPIEKTISKTKGRPKAPQVYTIPPPKEQMAKDKVSLTCMITDFFPEDITVEWQWNGQPAENYKNTQPIMDTDGSYFVYSKLNVQKSNWEAGNTFTCSVLHEGLHNHHTEKSLSHSPG
light: DVVMTQTPLSLPVSLGDQASISCRSGQSLVHSNGNTYLHWYLQKPGQSPKLLIYTVSNRFSGVPDRFSGSGSGSDFTLKISRVEAEDLGVYFCSQNTFVPWTFGGGTKLEIKRADAAPTVSIFPPSSEQLTSGGASVVCFLNNFYPKDINVKWKIDGSERQNGVLNSWTDQDSKDSTYSMSSTLTLTKDEYERHNSYTCEATHKTSTSPIVKSFNRNEC
modifications: Fc N-glycan essentially α-2,6-sialylated, G2F/G2F + 4 NeuNAc per mAb (very high sialic acid content)
notes: Small-scale batch LP10094, large-scale batch LP10104 and a CHO-produced batch are treated as this one molecule; also called antiAbeta_13C3_D257A batch LP10104; batch LP10094
binding result [2]: no binding | binding result (recombinant murine FcγRI): no binding

Second part, the molecule after the results:

binding result [2]: no binding | binding result (recombinant murine FcγRI): no binding
B2: antiAbeta_13C3_D257A mAb produced without co-expression of SIAT1 and B4GT1 (batch LP10116, low sialic acid content) (antibody, mouse IgG1, kappa)
heavy: B1 heavy
light: B1 light
modifications: Fc N-glycan G0F/G0F, low sialic acid content
notes: also called low sialylated antiAbeta-13C3_D257A

binding result [2]: no binding | binding result (recombinant murine FcγRI): no binding | Kd [3]: 471 nM | Kd [4]: 354 nM
B3: antiAbeta_13C3 mAb (murine, batch LP09009, low sialic acid content) (antibody, mouse IgG1, kappa)
heavy: B1 heavy with A257D
light: B1 light
modifications: Fc N-glycan with low sialic acid content
notes: Murine IgG1 heavy chain, murine Ckappa light chain; also called antiAbeta-13C13 mAb; original antiAbeta-13C3
